Biological target: CEACAM1 (carcinoembryonic antigen-related cellular adhesion molecule 1) on human CD4+ T lymphocytes and Jurkat cells (human) (UniProt P13688)
Experiment: cell-based or functional assay

Chain of UniProt P13688 (P13688 35-526): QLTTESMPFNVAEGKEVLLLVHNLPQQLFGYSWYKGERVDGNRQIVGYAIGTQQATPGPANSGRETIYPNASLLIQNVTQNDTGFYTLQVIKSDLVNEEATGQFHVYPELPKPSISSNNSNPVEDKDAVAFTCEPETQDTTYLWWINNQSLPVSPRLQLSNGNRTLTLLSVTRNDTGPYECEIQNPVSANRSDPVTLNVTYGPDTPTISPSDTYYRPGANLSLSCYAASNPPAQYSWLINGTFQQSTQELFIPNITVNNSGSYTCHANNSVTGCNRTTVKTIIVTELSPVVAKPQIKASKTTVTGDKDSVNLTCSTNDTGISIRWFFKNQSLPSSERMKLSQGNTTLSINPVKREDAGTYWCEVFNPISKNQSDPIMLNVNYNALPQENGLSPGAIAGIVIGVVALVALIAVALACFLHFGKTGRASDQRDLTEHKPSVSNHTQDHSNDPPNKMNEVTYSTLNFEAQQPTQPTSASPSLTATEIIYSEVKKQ

| Substance | reduction of IL-2-dependent CD4+ T lymphocyte proliferation at MOI=50, relative to Opa50-expressing gonococci [%] | reduction of IL-2-dependent CD4+ T lymphocyte proliferation at MOI=100, relative to Opa50-expressing gonococci [%] | reduction of IL-2-dependent CD4+ T lymphocyte proliferation at MOI=200, relative to Opa50-expressing gonococci [%] | lowest multiplicity of infection at which inhibition of Jurkat proliferation was apparent (MOI (bacteria/cell)) |
| --- | --- | --- | --- | --- |
| Opa52 protein of Neisseria gonorrhoeae strain MS11, expressed on gonococcal strain N309 (ligand) | 34 | 51 | 76 |  |
| Opa57 protein of Neisseria gonorrhoeae strain MS11, expressed on gonococcal strain N313 (ligand) |  |  |  | 25 |
